The values below come from paper PMC6358605 (2019).

What is called Kd is a measure of binding affinity in units of concentration. Read a high Kd as weaker binding.

Sequences and labels used below:
B1: Full-length mouse MANF (wild-type) (natural protein)
chain: LRPGDCEVCISYLGRFYQDLKDRDVTFSPATIEEELIKFCREARGKENRLCYYIGATDDAATKIINEVSKPLAHHIPVEKICEKLKKKDSQICELKYDNQIDLSTVDLKKLRVKELKKILDDWGEMCKGCAEKSDYIRKINELMPKYAPKAASARTDL
B2: biotinylated AviTag-BiP^19–413 (NBD) (domain or fragment)
chain: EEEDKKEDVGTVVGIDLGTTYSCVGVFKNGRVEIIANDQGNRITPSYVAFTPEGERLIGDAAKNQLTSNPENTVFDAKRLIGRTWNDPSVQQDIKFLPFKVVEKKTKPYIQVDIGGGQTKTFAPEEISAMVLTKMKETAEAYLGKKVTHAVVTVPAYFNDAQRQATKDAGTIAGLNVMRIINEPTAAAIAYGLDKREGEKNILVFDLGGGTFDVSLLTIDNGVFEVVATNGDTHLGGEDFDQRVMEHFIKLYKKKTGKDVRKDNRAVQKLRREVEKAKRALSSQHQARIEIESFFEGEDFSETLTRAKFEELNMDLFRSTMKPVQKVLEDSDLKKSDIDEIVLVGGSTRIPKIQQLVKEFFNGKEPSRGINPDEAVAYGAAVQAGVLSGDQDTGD
modifications: biotin (on the AviTag, by E. coli BirA)

The target in assay [1] is B2. As to the kind of experiment: BLI; steady-state K1/2 max.
Assay [2] has as its target B1. As to the kind of experiment: BLI; K1/2 max, steady state.

TVDLKKLRVKELKKILDDWGEMCKGCAEKSDYIRKINELMPKYA (domain or fragment) [SAP domain (126-169)] yielded a Kd in assay [1] of 10.3 µM.

Regarding B1, the Kd in assay [1] turned out to be 13.9 µM.

For the molecule B2, the Kd in assay [2] amounted to 16 µM. This lies in the double-digit micromolar range.
